Test results as given in patent publication US20180273635A1 (Zymeworks, published 2018).
Substitutions are numbered along the chain they refer to. Names and notes keep the numbering of the source. Blank lines part the entries; values can stand above or below the binder they belong to.

Assays:
Recombinant human HER2 [1] = target: T1, Recombinant human HER2 (human, UniProt P04626 23-652); assay: SPR, pre-SEC; ratio to WT v10013;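 note: SPR on Biacore T200 at 25 °C, constructs captured via anti-human Fc on CM5 chip, HER2 ECD as analyte, 1:1 Langmuir global fit, after protein A purification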
T1 construct: extracellular domain; analyte of the SPR assays; also called HER2 ECD; ECD2 of HER2
Method: (§1) The affinity towards HER2 ECD of the samples was measured by SPR on a Biacore T200 as follows. Between 2000 and 4000 RU of anti-human Fc injected at concentration between 5 and 10 μg/ml was immobilized on a CM5 chip using standard amine coupling. Antigen-binding constructs were captured on the anti-human Fc (injected at concentration at 0.51 microg/mL in PBST, 1 min at 10 microl/min) at response levels ranging from 120-270 RU. […] HER2 dilutions were analyzed in duplicates. Sensograms were fit globally to a 1: 1 Langmuir binding model, using the software provided with the Biacore T200. All experiments were conducted at 25° C.
(§2) The affinity of antigen-binding constructs in OA format was determined by SPR following protein A purification. […] Antigen-binding constructs in FSA format were purified by protein A affinity and SEC prior to assessment of affinity by SPR.

Recombinant human HER2 [2] = target: T1, Recombinant human HER2; assay: SPR, variant captured on anti-human Fc, HER2 flowed, 25 C, pre-SEC;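 note: HER2 extracellular domain binding on Biacore T200, CM5 chip with amine-coupled anti-human Fc, duplicate antigen dilutions, global 1:1 Langmuir fit, measured after protein A purification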
Method: as §1, §2

Recombinant human HER2 [3] = target: T1, Recombinant human HER2; assay: SPR, post-SEC; ratio to WT v10013
Method: as §1, §2

Recombinant human HER2 [4] = target: T1, Recombinant human HER2; assay: SPR, variant captured on anti-human Fc, HER2 flowed, 25 C, post-SEC
Method: as §1, §2

Recombinant human HER2 [5] = target: T2, Recombinant human HER2 (human, UniProt P04626 23-652); assay: calculated from the SPR Ka ratio to WT, -RTln(Ka,mut/Ka,WT), 298 K
T2 construct: extracellular domain; Analyte of the SPR assays; also called HER2 ECD; ECD2 of HER2

Recombinant human HER2 [6] = target: T2, Recombinant human HER2; assay: SPR post-SEC (value taken over from Table 5); Ka ratio to WT v10013
Method: as §1, §2

Recombinant human HER2 [7] = target: T2, Recombinant human HER2; assay: SPR, 25 C; Ka ratio to WT v10013;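 note: constructs captured via anti-human Fc on CM5 chip, HER2 ECD as analyte in duplicate dilutions, sensorgrams globally fit to 1:1 Langmuir model on Biacore T200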
Recombinant human HER2 [8] = target: T2, Recombinant human HER2; assay: SPR, Biacore T200, 25 C; variant captured on anti-human Fc, HER2 flowed;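 note: HER2 extracellular domain analyte run as duplicate dilutions over amine-coupled anti-Fc on a CM5 chip, rates from global sensorgram fitting with a 1:1 Langmuir model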
Method: as §1

Recombinant human HER2 [9] = target: T2, Recombinant human HER2; assay: calculated from the SPR Ka ratio to WT v10013;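 note: SPR at 25 °C with constructs captured on an anti-human Fc chip and HER2 extracellular domain as analyte, kinetics fitted to a 1:1 Langmuir model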
Method: as §1

B1: variant 12479 (antibody, human IgG1, kappa)
heavy: EVQLVESGGGLVQPGGSLRLSCAASGFTFNDYTMDWVRQAPGKGLEWVADVNPNSGGSIYNQRFKGRFTLSVDRSKNTLYLQMNSLRAEDTAVYYCARNLGPSFYFDYWGQGTLVTVSSASTKGPSVFPLAPSSKSTSGGTAALGCLVKDYFPEPVTVSWNSGALTSGVHTFPAVLQSSGLYSLSSVVTVPSSSLGTQTYICNVNHKPSNTKVDKKVEPKSCDKTHTCPPCPAPELLGGPSVFLFPPKPKDTLMISRTPEVTCVVVDVSHEDPEVKFNWYVDGVEVHNAKTKPREEQYNSTYRVVSVLTVLHQDWLNGKEYKCKVSNKALPAPIEKTISKAKGQPREPQVYVYPPSRDELTKNQVSLTCLVKGFYPSDIAVEWESNGQPENNYKTTPPVLDSDGSFALVSKLTVDKSRWQQGNVFSCSVMHEALHNHYTQKSLSLSPG
light: not shown
chain: not shown
notes: OA pertuzumab variant, HC T30N (Kabat); also called v12479
Ka, mut/Ka, WT (Recombinant human HER2 [1]): 3.9
Kd (Recombinant human HER2 [2]): 5 nM
Ka, mut/Ka, WT (Recombinant human HER2 [3]): 4.7
Kd (Recombinant human HER2 [4]): 4.4 nM

B2: Variant 12482 (antibody, human IgG1, kappa)
heavy: B1 heavy with N30F
light: not shown
chain: not shown
notes: OA (one-armed) format; clones 7817, 1811, 4372; also called v12482
ΔΔG (Recombinant human HER2 [5]): -0.6 kcal/mol
Ka, mut/Ka, WT (Recombinant human HER2 [6]): 2.9 fold

B6: Variant 14063 (antibody, human IgG1, kappa)
heavy: B1 heavy with N30Q, G57Y
light: not shown
chain: not shown
notes: OA (one-armed) format; clones 8788, 8781, 4372; also called v14063
Ka, mut/Ka, WT (Recombinant human HER2 [7]): ~124 fold
Kd (Recombinant human HER2 [8]): ~0.13 nM
koff (Recombinant human HER2 [8]): ~8.3e-06 s⁻¹
kon (Recombinant human HER2 [8]): 63000 M⁻¹ s⁻¹
ΔΔG (Recombinant human HER2 [9]): -2.9 kcal/mol

B7: Variant 12491 (antibody, human IgG1, kappa)
heavy: B1 heavy with N30T, G57F
light: not shown
chain: not shown
notes: OA (one-armed) format; clones 7826, 1811, 4372; also called v12491
ΔΔG (Recombinant human HER2 [5]): -0.4 kcal/mol
Ka, mut/Ka, WT (Recombinant human HER2 [6]): 2.1 fold

B8: Variant 12478 (antibody, human IgG1, kappa)
heavy: B1 heavy with N30Y
light: not shown
chain: not shown
notes: OA (one-armed) format; clones 7813, 1811, 4372; also called v12478
ΔΔG (Recombinant human HER2 [5]): -0.8 kcal/mol
Ka, mut/Ka, WT (Recombinant human HER2 [6]): 3.6 fold

B9: Variant 12506 (antibody, human IgG1, kappa)
heavy: B1 heavy with N30T, K76W
light: not shown
chain: not shown
notes: OA (one-armed) format; clones 7844, 1811, 4372; also called v12506
ΔΔG (Recombinant human HER2 [5]): -2 kcal/mol
Ka, mut/Ka, WT (Recombinant human HER2 [6]): 30.6 fold

B12: Variant 12490 (antibody, human IgG1, kappa)
heavy: B1 heavy with N30T, G57Y
light: not shown
chain: not shown
notes: OA (one-armed) format; clones 7825, 1811, 4372; also called v12490
ΔΔG (Recombinant human HER2 [5]): -0.6 kcal/mol
Ka, mut/Ka, WT (Recombinant human HER2 [6]): 2.7 fold

B13: Variant 12480 (antibody, human IgG1, kappa)
heavy: B1 heavy with N30Q
light: not shown
chain: not shown
notes: OA (one-armed) format; clones 7815, 1811, 4372; also called v12480
ΔΔG (Recombinant human HER2 [5]): -0.9 kcal/mol
Ka, mut/Ka, WT (Recombinant human HER2 [6]): 4.7 fold

B17: Variant 12538 (antibody, human IgG1, kappa)
heavy: B1 heavy with N30T
light: not shown
chain: not shown
notes: OA (one-armed) format; clones 3057, 7919, 4372; also called v12538
ΔΔG (Recombinant human HER2 [5]): -0.9 kcal/mol
Ka, mut/Ka, WT (Recombinant human HER2 [6]): 4.8 fold

Other lines, results leading:

Ka, mut/Ka, WT (Recombinant human HER2 [1]): 2.5
Kd (Recombinant human HER2 [2]): 7.7 nM
Ka, mut/Ka, WT (Recombinant human HER2 [3]): 2.9
Kd (Recombinant human HER2 [4]): 7.3 nM
B3: variant 12482 (antibody, human IgG1, kappa)
heavy: B1 heavy with N30F
light: not shown
chain: not shown
notes: OA pertuzumab variant, HC T30F (Kabat); also called v12482

Ka, mut/Ka, WT (Recombinant human HER2 [1]): 1.1
Kd (Recombinant human HER2 [2]): 18 nM
Ka, mut/Ka, WT (Recombinant human HER2 [3]): 0.8
Kd (Recombinant human HER2 [4]): 27 nM
B4: variant 12504 (antibody, human IgG1, kappa)
heavy: B1 heavy with N30T, S75A
light: not shown
chain: not shown
notes: OA pertuzumab variant, HC S74A (Kabat); also called v12504

Ka, mut/Ka, WT (Recombinant human HER2 [1]): 1.3
Kd (Recombinant human HER2 [2]): 15 nM
Ka, mut/Ka, WT (Recombinant human HER2 [3]): 0.8
Kd (Recombinant human HER2 [4]): 25 nM
B5: variant 12503 (antibody, human IgG1, kappa)
heavy: B1 heavy with N30T, S75H
light: not shown
chain: not shown
notes: OA pertuzumab variant, HC S74H (Kabat); also called v12503

Ka, mut/Ka, WT (Recombinant human HER2 [1]): 2.1
Kd (Recombinant human HER2 [2]): 9.1 nM
Ka, mut/Ka, WT (Recombinant human HER2 [3]): 2.1
Kd (Recombinant human HER2 [4]): 10 nM
B10: variant 12491 (antibody, human IgG1, kappa)
heavy: B1 heavy with N30T, G57F
light: not shown
chain: not shown
notes: OA pertuzumab variant, HC G56F (Kabat); also called v12491

Ka, mut/Ka, WT (Recombinant human HER2 [1]): 4.2
Kd (Recombinant human HER2 [2]): 4.6 nM
Ka, mut/Ka, WT (Recombinant human HER2 [3]): 3.7
Kd (Recombinant human HER2 [4]): 5.7 nM
B11: variant 12505 (antibody, human IgG1, kappa)
heavy: B1 heavy with N30T, K76E
light: not shown
chain: not shown
notes: OA pertuzumab variant, HC K75E (Kabat); also called v12505

Ka, mut/Ka, WT (Recombinant human HER2 [1]): 4.6
Kd (Recombinant human HER2 [2]): 4.2 nM
Ka, mut/Ka, WT (Recombinant human HER2 [3]): 4.7
Kd (Recombinant human HER2 [4]): 4.4 nM
B14: variant 12480 (antibody, human IgG1, kappa)
heavy: B1 heavy with N30Q
light: not shown
chain: not shown
notes: OA pertuzumab variant, HC T30Q (Kabat); also called v12480

Ka, mut/Ka, WT (Recombinant human HER2 [1]): 3.6
Kd (Recombinant human HER2 [2]): 5.4 nM
Ka, mut/Ka, WT (Recombinant human HER2 [3]): 3.1
Kd (Recombinant human HER2 [4]): 6.6 nM
B15: variant 12520 (antibody, human IgG1, kappa)
heavy: B1 heavy with N30R, G57Y
light: not shown
chain: not shown
notes: also called v12520

Ka, mut/Ka, WT (Recombinant human HER2 [1]): 8.2
Kd (Recombinant human HER2 [2]): 2.4 nM
Ka, mut/Ka, WT (Recombinant human HER2 [3]): 5.3
Kd (Recombinant human HER2 [4]): 3.9 nM
B16: variant 12502 (antibody, human IgG1, kappa)
heavy: B1 heavy with N30T, S75W
light: not shown
chain: not shown
notes: OA pertuzumab variant, HC S74W (Kabat); also called v12502
